Results published in US20040126819A1 (LICENTIA, published 2004).

How the values were obtained:
[1] = target: T1, 135 kD GDNF receptor subunit of rat cell lines; experiment: displacement of 125I-GDNF by cold GDNF on RN33B cells, cross-linking, SDS-PAGE, bands counted
T1 construct: On C6, L6, RN33B and RN46A cells
Experimental: (§1) Plated cells were incubated with 10 ng/ml […] at 4° C. in binding buffer as described above. Ligand/receptor complexes were chemically cross-linked for thirty minutes at room temperature using either disuccinimidyl suberate (DSS) or 1-Ethyl-3(-3-dimethylaminopropyl)-carbodiimide hydrochloride (EDAC) (Pierce Chemical, Rockland, Ill.). Following quenching of the cross-linking reactions, cells were washed twice with 10 mM Tris/HCl buffered saline, 2 mM EDTA, 10% glycerol, 1% NP40, 1% Triton x-100, 10 μg/ml leupeptin, 10 μg/ml antipain, 50 μg/ml aprotinin, 100 μg/ml benzamidine hydrochloride, 10 μg/ml pepstatin and 1 mM PMSF(proteinase inhibitors from Sigma). Cleared lysates were boiled for 5 min in SDS/β-mercaptoethanol buffer, fractionated by SDS/PAGE on 4-20% gradient electrophoresis gels, and visualized by autoradiography. […] These samples were fractionated by gradient SDS/PAGE, gels were then dried and specific bands excised according to molecular weights determined from autoradiograms, and count in a gamma counter. […]
(§2) In order to dissect the individual constituent affinities of GDNF receptor subunits, displacement binding assays were performed, followed by cross-linking and SDS-PAGE. Receptor-ligand complexes were visualized by autoradiography, cut out from the gel and counted in a gamma counter.

[2] = target: T2, 300 kD GDNF receptor subunit of rat cell lines; experiment: as above
T2 construct: On C6, L6, RN33B, RN46A and ST15A cells; also called large molecular weight band; high molecular weight component
Experimental: as §1, §2

[3] = target: 300 kD GDNF receptor subunit of mouse cell lines (MN-1, TM4, SK-N-SH as printed); experiment: displacement of 125I-GDNF by cold GDNF on MN-1 cells, cross-linking, SDS-PAGE, bands counted
Experimental: as §1, §2

[4] = target: T1, 135 kD GDNF receptor subunit of rat …; experiment: displacement of 125I-GDNF by increasing cold GDNF on RN33B cells, cross-linking, SDS-PAGE, band of the subunit cut out and counted
Experimental: (§3) Plated cells were incubated with 10 ng/ml […] at 4° C. in binding buffer as described above. Ligand/receptor complexes were chemically cross-linked for thirty minutes at room temperature using either disuccinimidyl suberate (DSS) or 1-Ethyl-3(-3-dimethylaminopropyl)-carbodiimide hydrochloride (EDAC) (Pierce Chemical, Rockland, Ill.). Following quenching of the cross-linking reactions, cells were washed twice with 10 mM Tris/HCl buffered saline, 2 mM EDTA, 10% glycerol, 1% NP40, 1% Triton x-100, 10 μg/ml leupeptin, 10 μg/ml antipain, 50 μg/ml aprotinin, 100 μg/ml benzamidine hydrochloride, 10 μg/ml pepstatin and 1 mM PMSF(proteinase inhibitors from Sigma). Cleared lysates were boiled for 5 min in SDS/β-mercaptoethanol buffer, fractionated by SDS/PAGE on 4-20% gradient electrophoresis gels, and visualized by autoradiography. Molecular weights indicated were obtained by subtracting the weight of a GDNF ligand monomer, e.g., 25-30 kD, more preferably […], from the estimated molecular weights of cross-linked complexes visualized by SDS/PAGE. For affinity measurements of cross-linked complexes, cells were incubated on plates as above in the presence of increasing amounts of unlabeled GDNF. These samples were fractionated by gradient SDS/PAGE, gels were then dried and specific bands excised according to molecular weights determined from autoradiograms, and count in a gamma counter. […] Immunocomplexes were collected with Protein A-Sepharose (Pharmacia, Sweden), washed in lysis buffer and boiled for 5 minutes before SDS/PAGE and autoradiography as above.
as §2

[5] = target: T3, 55 kD GDNF receptor subunit of rat cell lines (confirmed to be GDNFR-α) (rat, UniProt Q62997 25-430); experiment: as above
T3 construct: whole, on cells; also called 50-55 kD receptor; 70 kD complex (with GDNF) in RN33B cells
T3 sequence (looked up): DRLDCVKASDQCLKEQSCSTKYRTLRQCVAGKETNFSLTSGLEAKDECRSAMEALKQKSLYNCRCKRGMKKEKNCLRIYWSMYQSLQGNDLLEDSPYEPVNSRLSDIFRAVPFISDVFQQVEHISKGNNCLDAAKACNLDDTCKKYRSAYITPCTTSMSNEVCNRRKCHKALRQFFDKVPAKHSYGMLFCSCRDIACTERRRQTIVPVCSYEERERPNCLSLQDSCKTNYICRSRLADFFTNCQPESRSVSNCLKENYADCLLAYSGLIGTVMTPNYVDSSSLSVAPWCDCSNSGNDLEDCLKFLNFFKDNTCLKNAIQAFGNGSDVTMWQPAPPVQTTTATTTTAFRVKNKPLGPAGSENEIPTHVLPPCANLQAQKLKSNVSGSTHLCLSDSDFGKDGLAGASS
Experimental: as §3, §2

[6] = target: T2, 300 kD GDNF receptor subunit of rat …; experiment: as above
Experimental: as §3, §2

[7] = target: T4, 70 kD GDNF receptor subunit of rat cell lines (designated GDNFR-β) (rat, UniProt O35977 22-444); experiment: as above
T4 construct: whole, on cells; also called 65-70 kD receptor; 100 kD complex (with GDNF) in RN33B cells
T4 sequence: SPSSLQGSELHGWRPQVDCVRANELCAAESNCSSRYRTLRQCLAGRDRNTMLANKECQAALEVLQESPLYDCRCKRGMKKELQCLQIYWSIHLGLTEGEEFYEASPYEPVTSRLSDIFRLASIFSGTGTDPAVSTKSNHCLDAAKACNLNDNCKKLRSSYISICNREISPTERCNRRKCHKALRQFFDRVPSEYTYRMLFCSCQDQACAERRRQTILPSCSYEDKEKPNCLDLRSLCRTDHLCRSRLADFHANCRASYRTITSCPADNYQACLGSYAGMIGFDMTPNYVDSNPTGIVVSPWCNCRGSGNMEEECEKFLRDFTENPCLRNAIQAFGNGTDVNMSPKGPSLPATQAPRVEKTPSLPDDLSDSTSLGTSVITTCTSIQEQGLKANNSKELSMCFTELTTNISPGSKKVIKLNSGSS
Experimental: as §3, §2

B1: recombinant rat GDNF produced in Sf21 insect cells using a baculovirus expression system (ligand, UniProt Q07731 78-211, looked up)
chain: SPDKQAAALPRRERNRQAAAASPENSRGKGRRGQRGKNRGCVLTAIHLNVTDLGLGYETKEELIFRYCSGSCEAAETMYDKILKNLSRSRRLTSDKVGQACCRPVAFDDDLSFLDDSLVYHILRKHSAKRCGCI
modifications: labeled with Na-^125I by the chloramine-T method where used as tracer
notes: mature; also called glial cell line-derived neurotrophic factor
~0.2 nM: Kd [1] | Kd [2] | Kd [3] | IC50 (read off the curve) [4] | IC50 (read off the curve) [5] | IC50 (read off the curve) [7]
~0.1 nM: IC50 (read off the curve) [6]
